Measurements taken from US20100124555A1, “Compositions and Methods for Treating Pancreatic Tumors” (UNIVERSITE DE LA MEDITERRANEE, priority 2007, published 2010).

Columns and labels:
SOJ-6 cells [1] = test: Apoptosis by caspase activity (CaspACE FITC-VAD-fmk in situ marker); type: cell-based, human
Description: Cells grown in 8-well plates (Polystyrene vessel, BD Falcon) were treated with mAb16D10 or mouse IgM in RPMI with inactivated FCS for 24 hours prior to the addition of CaspACE FITC-VAD-fmk in situ marker (Promega) at a final concentration of 10 μM in the culture medium according to manufacturer's instructions. Then cells were washed in PBS, fixed for 15 minutes in 2% paraformaldehyde, and washed once again. Upon caspase action on FITC-VAD-fmk, apoptotic cells become fluorescent and the number of fluorescent cells was determined in triplicate on collections of 10 fields randomly examined under the fluorescent microscope.

SOJ-6 cells [2] = test: Nuclear staining with DAPI (nuclear fragmentation); type: cell-based, human; settings: RPMI induced no apoptosis
Description: After treatment with mAb16D10 or cisplatin, cells were washed in ice-cold PBS, fixed and permeablized with 70% ethanol for 5 min at […] and staining with diluted 1/1000 DAPI solution in PBS for 1 min at room temperature. The cells were then washed with PBS. The nuclear morphology of cells was examined by fluorescence microscopy.

PANC-1 cells = test: Cell-cycle distribution by propidium iodide flow cytometry, PANC-1; type: cell-based, human
[3] = tested on: p53, cyclin D1, GSK-3β in SOJ-6 cells; test: Western blot of cell cycle regulatory proteins; type: cell-based, human
Description: SOJ-6 cells were grown in 6-well culture plates in RPMI 1640 medium with 10% FCS. At subconfluency, the medium was removed and replaced for 24 hours by fresh RPMI medium with 10% inactivated FCS. SOJ-6 cells were then incubated with mAb16D10 or Cisplatin for 24 hours. At the end of incubation, cells were washed three times with ice-cold PBS (without […] and Mg^++) harvested and pelleted by centrifugation. Pellets were washed twice and lysed at 4° C. in 0.5 ml of lysis buffer (10 mM Tris-HCl pH 7.4, 150 mM NaCl, 1% Triton X-100, 1 mM benzamidine and phosphatase inhibitors). After lysis, homogenates were clarified by centrifugation at 10,000 g for 10 min at 4° C. An aliquot was saved for protein determination using the bicinchoninic acid assay (Pierce, Rockford, Ill.). Proteins (50 μg/lane) in reducing SDS buffer were separated onto 10, 12, or 15% polyacrylamide with 0.1% SDS (according to the molecular weight range of proteins to be separated). After electrophoretic migration, proteins were silver stained. Alternatively, proteins were transferred onto nitrocellulose membranes using a Mini Transblot electrophoretic cell (BioRad, Hercule, Oreg.), and transferred proteins were immunodetected by using appropriate primary and secondary antibodies. After washes, membranes were developed with a chemoluminescent substrate according to the manufacturer's instructions (Roche Diagnostics, Switzerland). In each experiment, a control was included by omitting primary antibodies or by using a non-immune serum.
The expression of different cell cycle regulatory proteins, specifically p53 and cyclin D1, was next analyzed. […] Since cyclin D1 expression may be directly regulated by GSK-3β (Diehl et al., 1998 Genes Dev. 12(22):3499-511), we next focused on the expression level of this kinase in SOJ-6 cells once challenged with mAb16D10.

[4] = tested on: E-cadherin in PANC-1 cells; test: Immunofluorescence of E-cadherin, PANC-1; type: cell-based, human; settings: PANC-1 treated or not with mAb16D10
[5] = tested on: 16D10 antigen on SOJ-6 cells; test: Flow cytometry detection of antigen at the cell surface, SOJ-6; type: binding, human
Description: (§1) Detection of antigens at the surface of SOJ-6 and PANC-1 cells was carried out by indirect fluorescence under the following conditions: cells were released from culture plates by treatment with a non enzymatic dissociation liquid (Calbiochem) for 15 minutes at 37° C. All subsequent steps were carried out at 4° C. The cells were washed with phosphate buffered saline (PBS), fixed with 2% paraformaldehyde in PBS for 15 minutes, and washed with 1% BSA in PBS for 15 minutes. Antigens were exposed for 2 hours to specific antibodies, washed with PBS, and finally incubated for 45 minutes with appropriate FITC-labeled secondary antibodies. Cells were then washed, resuspended in isoflow buffer, and analyzed on Coulter FACSCalibur device.
(§2) Flow cytometry experiments were carried out to investigate whether the antigen recognized by 16D10 was found on the surface of cells. Results are shown in FIGS. 14 and 15, representing SOJ-6 and PANC-1 cells, respectively. […] In each case, 16D10 binding was compared to a negative control and a control mouse IgM (Sigma).

[6] = tested on: 16D10 antigen on PANC-1 cells; test: Flow cytometry detection of antigen at the cell surface, PANC-1; type: binding, human
Description: as §1, §2

living cells in culture = test: Pulse-chase confocal microscopy internalization; type: cell-based; settings: pulse 30 min at 4° C.; chase 2 h at 37° C.
Description: A pulse-chase experiment using confocal microscopy was used to assess the interaction of the IgM 16D10 antibody with living cells in culture. (Pulse: 30 min at 4° C.; Chase: 0 or 2 h at 37° C. in culture medium.) It was observed that virtually all of the mAb was internalized within 2 h. A fraction of the mAbs co-localized with LAMP1.

[7] = Tissue cross-reaction study (staining of healthy tissues); settings: non-specific crossreactivity
Description: The staining specificity of the IgM 16D10 and chimeric IgG rec16D10 antibodies was assessed by examining their respective staining of various healthy tissues. […] Staining with the chimeric antibody reel 6D10, in contrast, was negative on each of these healthy tissues.

[8] = tested on: cell surface antigens of fixed SOJ-6 cells; test: FACS cell surface binding stability on fixed SOJ-6 cells; parameters: species or system human; settings: preliminary FACS experiments
Source text: Taking in account that most of the antibodies that have been studied so far at Innate Pharma, have kon rate association constants ranging from 5×10^5 to 5×10^6 M^−1s^−1, one can estimate that the recombinant 16D10 antibody bivalent affinity is in the nanomolar order (e.g., 10 to 1 nanoM) which is compatible with the industrial development of a therapeutic antibody.

B1: 16D10: IgM monoclonal antibody recognizing FAPP/BSDL; producing cells deposited with the CNCM under the number I-3188 (antibody, listed as Mus musculus, V domains shown)
VH: QVQLQQSDAELVKPGASVKISCKASGYTFTDHAIHWVKQKPEQGLEWIGYISPGNDVIKFNEKFKGKATLTADKSSSTAYMQLNSLTSEDSAVYFCKRSEGGVFDYWGQGTTLTVS
VL: NIMMTQSPSSLAVSAGEKVTMSCKSSQSVLYSSNQKNFLAWYQQKPGQSPKLLIYWASTRESGVPDRFTGSGSGTDFTLTISSVQAEDLAVYYCHQYLSSYTFGGGTKLEIK
In the case of B1, the “apoptotic cellular death of SOJ-6 cells (number of apoptotic cells/cm2)” value (SOJ-6 cells [1]; 24 h, compared to RPMI and mouse IgM) is reported as “leads to the apoptosis of SOJ-6 cells”, the “apoptosis by caspase activity (number of apoptotic cells compared to control)” value (SOJ-6 cells [1]; SOJ-6, 24 hours, 16D10 25 μg/ml, recombinant chimeric 16D10 5 μg/ml) is reported as “clearly enhanced” and the “caspases through which apoptosis is stimulated” value (SOJ-6 cells [1]; cells pre-treated with or without caspase inhibitors) is reported as “stimulates apoptosis through the caspase-3, caspase-8, and caspase-9”. The “apoptosis observed by DAPI staining (nuclear fragmentation)” value (SOJ-6 cells [2]) was “significant levels of apoptosis”, the “effect on the cell cycle” value (PANC-1 cells) was “no effect on the cell cycle was observed” and the “expression of cyclin D1” value [3] was “decreased that of cyclin D1”. For the same molecule, the “expression of p53” value [3] was “increased the expression of p53”, the “expression of total GSK-3β” value [3] was “constant” and the “phospho-GSK-3β (inactive form)” value [3] was “a decrease in the phospho-GSK-3β”. For the same molecule, the “E-cadherin at the plasma membrane” value [4] was “did not express E-cadherin at their plasma membrane”, the “effect of trypsin incubation on binding to SOJ-6 cells” value ([5]; antibody incubated with trypsin) was “substantially decrease the binding” and the “binding to antigen on SOJ-6 cells” value ([5]; flow cytometry / FACS) was “found to bind antigen present on SOJ-6 cells”. The “binding to antigen on PANC-1 cells” value [6] was “did not bind antigen present on PANC-1 cells”, the “fraction of mAb internalized” value (living cells in culture) was “virtually all” and the “staining of healthy tissues (tonsils, salivary gland, peripheral nerve, eyes, bone marrow, ovary, oviduct, parathyroid, prostate, spleen, kidney, adrenals, testes, thymus, ureters, uterus, bladder)” value [7] was “positive staining”. For the same molecule, the “stability of staining on fixed SOJ-6 cells” value [8] was “seemed stable”.
